Experimental data as given in patent US20220267442A1.
pKd: −log10 of the molar value.

Molecular target: TGFβ1 (human) (UniProt P01137)
Assay: SPR

Chain of TGFβ1 (human) (P01137 279-390): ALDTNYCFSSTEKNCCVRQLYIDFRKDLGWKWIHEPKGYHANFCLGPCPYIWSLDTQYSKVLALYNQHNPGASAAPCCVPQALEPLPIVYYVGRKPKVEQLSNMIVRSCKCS

Work on αTGF-β (1D11) yielded a pKd of 7.58.
